Assay results from the supplement of paper PMC7877785.
± gives the uncertainty stated by the source.

Test: self-splicing fitness, log relative to wild type (ln ratio); higher = more splicing; Tetrahymena group I intron in knt gene, E. coli kanamycin selection, DiMSum; sequences stand for … in CUCUCU…GGAGGGAAAAGUUAUCAGGCAUGCACCUGGUAGCUAGUCUUUAAACCAAUAGAUUGCAUCGGUUUAAAAGGCAAGACCGUCAAAUUGCGGGAAAGGGGUCAACAGCCGUUCAGUACCAAGUCUCAGGGGAAACUUUGAGAUGGCCUUGCAAAGGGUAUGGUAAUAAGCUGACGGACAUGGUCCUAACCACGCAGCCAAGUCCUAAGUCAACAGAUCUUCUGUUGAUAUGGAUGCAGUUCACAGACUAAAUGUCGGUCGGGGAAGAUGUAUUCUUCUCAUAAGAUAUAGUCGGACCUCUCCUUAAUGGGAGCUAGCGGAUGAAGUGAUGCAACACUGGAGCCGCUGGGAACUAAUUUGUAUGCGAAAGUAUAUUGAUUAGUUUUGGAGUACUCGUGGUCG
Procedure, shortened: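 Six replicate transformations of E. coli BL21(DE3) with a pET-22b(+) library were grown overnight at 37°C or 30°C. The library randomised all eight P1ex-region intron nucleotides, the intron lying in the knt kanamycin-resistance gene, and plates were LB agar with or without 25 μg/mL kanamycin plus 100 μg/mL carbenicillin, 50 μM IPTG and 0.2% rhamnose. Pooled colonies were amplicon-sequenced on an Illumina HiSeq 2500, and fitness is the DiMSum error-weighted combination of wild-type-normalised replicate fold changes, kanamycin versus none.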

## ACGCAGCAAUAUUACGUCCA
30 °C
  self-splicing fitness (ln): -1.28 ± 0.11
37 °C
  self-splicing fitness (ln): -1.13 ± 0.1

## ACGGAGCAAUAUUACGAAAG
30 °C
  self-splicing fitness (ln): -3.06 ± 0.31

## ACGGAGCAAUAUUACGAGUA
30 °C
  self-splicing fitness (ln): -2.03 ± 0.41
37 °C
  self-splicing fitness (ln): -1.94 ± 0.33

## ACGGAGCAAUAUUACGAUCA
30 °C
  self-splicing fitness (ln): -2.77 ± 0.37
37 °C
  self-splicing fitness (ln): -1.53 ± 0.24

## ACGGAGCAAUAUUACGAUUA
30 °C
  self-splicing fitness (ln): -2.6 ± 0.25
37 °C
  self-splicing fitness (ln): -2.23 ± 0.29

## ACGGAGCAAUAUUACGCAAA
30 °C
  self-splicing fitness (ln): -2.73 ± 0.25
37 °C
  self-splicing fitness (ln): -1.58 ± 0.22

## ACGGAGCAAUAUUACGCACU
30 °C
  self-splicing fitness (ln): -3.4 ± 0.34
37 °C
  self-splicing fitness (ln): -1.32 ± 0.23

## ACGGAGCAAUAUUACGCGAU
37 °C
  self-splicing fitness (ln): -1.2 ± 0.17

## ACGGAGCAAUAUUACGCGGA
30 °C
  self-splicing fitness (ln): -3.41 ± 0.37
37 °C
  self-splicing fitness (ln): -1.54 ± 0.26

## ACGGAGCAAUAUUACGCGUA
30 °C
  self-splicing fitness (ln): -2.62 ± 0.12
37 °C
  self-splicing fitness (ln): -1.32 ± 0.11

## ACGGAGCAAUAUUACGGAAC
30 °C
  self-splicing fitness (ln): -3.05 ± 0.27
37 °C
  self-splicing fitness (ln): -3.62 ± 0.47

## ACGGAGCAAUAUUACGGACU
30 °C
  self-splicing fitness (ln): -2.21 ± 0.15
37 °C
  self-splicing fitness (ln): -1.84 ± 0.16

## ACGGAGCAAUAUUACGGCGA
30 °C
  self-splicing fitness (ln): -2.01 ± 0.13
37 °C
  self-splicing fitness (ln): -1.83 ± 0.15

## ACGGAGCAAUAUUACGGGAG
30 °C
  self-splicing fitness (ln): -3.09 ± 0.37
37 °C
  self-splicing fitness (ln): -1.65 ± 0.24

## ACGGAGCAAUAUUACGGUAU
30 °C
  self-splicing fitness (ln): -4.48 ± 0.25
37 °C
  self-splicing fitness (ln): -2.58 ± 0.2

## ACGGAGCAAUAUUACGGUCU
30 °C
  self-splicing fitness (ln): -3.07 ± 0.21
37 °C
  self-splicing fitness (ln): -2.44 ± 0.26

## ACGGAGCAAUAUUACGGUUU
30 °C
  self-splicing fitness (ln): -3.1 ± 0.15
37 °C
  self-splicing fitness (ln): -3.31 ± 0.28

## ACGGAGCAAUAUUACGUAUG
30 °C
  self-splicing fitness (ln): -3.6 ± 0.2
37 °C
  self-splicing fitness (ln): -2.81 ± 0.32

## ACGGAGCAAUAUUACGUCUU
30 °C
  self-splicing fitness (ln): -2.7 ± 0.35
37 °C
  self-splicing fitness (ln): -2.06 ± 0.5

## ACGGAGCAAUAUUACGUGAU
30 °C
  self-splicing fitness (ln): -3.47 ± 0.19
37 °C
  self-splicing fitness (ln): -1.32 ± 0.2

## ACGUAGCAAUAUUACGAACG
30 °C
  self-splicing fitness (ln): -1 ± 0.082
37 °C
  self-splicing fitness (ln): -0.927 ± 0.12

## ACGUAGCAAUAUUACGAAUG
30 °C
  self-splicing fitness (ln): -2.89 ± 0.13
37 °C
  self-splicing fitness (ln): -1.53 ± 0.12

## ACGUAGCAAUAUUACGACAA
30 °C
  self-splicing fitness (ln): -0.894 ± 0.071
37 °C
  self-splicing fitness (ln): -0.495 ± 0.084

## ACGUAGCAAUAUUACGACAU
30 °C
  self-splicing fitness (ln): -0.126 ± 0.012
37 °C
  self-splicing fitness (ln): 0.0543 ± 0.032

## ACGUAGCAAUAUUACGACUA
30 °C
  self-splicing fitness (ln): -0.558 ± 0.15
37 °C
  self-splicing fitness (ln): 0.529 ± 0.18

## ACGUAGCAAUAUUACGAGCA
30 °C
  self-splicing fitness (ln): -0.664 ± 0.2
37 °C
  self-splicing fitness (ln): -1.82 ± 0.19

## ACGUAGCAAUAUUACGAGUG
30 °C
  self-splicing fitness (ln): -2.54 ± 0.2
37 °C
  self-splicing fitness (ln): -1.43 ± 0.15

## ACGUAGCAAUAUUACGAUGC
30 °C
  self-splicing fitness (ln): -3.24 ± 0.22
37 °C
  self-splicing fitness (ln): -1.51 ± 0.22

## ACGUAGCAAUAUUACGAUUA
30 °C
  self-splicing fitness (ln): -0.625 ± 0.12
37 °C
  self-splicing fitness (ln): -0.514 ± 0.11

## ACGUAGCAAUAUUACGCCAU
30 °C
  self-splicing fitness (ln): -3.02 ± 0.19
37 °C
  self-splicing fitness (ln): -2.55 ± 0.24

## ACGUAGCAAUAUUACGCCGA
30 °C
  self-splicing fitness (ln): -1.34 ± 0.23
37 °C
  self-splicing fitness (ln): -0.566 ± 0.18

## ACGUAGCAAUAUUACGCCGG
30 °C
  self-splicing fitness (ln): -1.28 ± 0.11
37 °C
  self-splicing fitness (ln): -0.915 ± 0.17

## ACGUAGCAAUAUUACGCGGC
30 °C
  self-splicing fitness (ln): -3.01 ± 0.22
37 °C
  self-splicing fitness (ln): -2.47 ± 0.42

## ACGUAGCAAUAUUACGCGUC
30 °C
  self-splicing fitness (ln): -1.53 ± 0.22
37 °C
  self-splicing fitness (ln): -1.97 ± 0.35

## ACGUAGCAAUAUUACGGGAG
30 °C
  self-splicing fitness (ln): -3.63 ± 0.17
37 °C
  self-splicing fitness (ln): -2.28 ± 0.17

## ACGUAGCAAUAUUACGGGGU
30 °C
  self-splicing fitness (ln): -4.31 ± 0.3
37 °C
  self-splicing fitness (ln): -2.51 ± 0.18

## ACGUAGCAAUAUUACGGUCA
30 °C
  self-splicing fitness (ln): -0.681 ± 0.16
37 °C
  self-splicing fitness (ln): 0.577 ± 0.17

## ACGUAGCAAUAUUACGUAGA
30 °C
  self-splicing fitness (ln): -3.58 ± 0.42
37 °C
  self-splicing fitness (ln): -2.86 ± 0.41

## ACGUAGCAAUAUUACGUCAC
37 °C
  self-splicing fitness (ln): -1.67 ± 0.4

## ACGUAGCAAUAUUACGUCUA
30 °C
  self-splicing fitness (ln): -0.802 ± 0.27
37 °C
  self-splicing fitness (ln): -1.22 ± 0.18

## ACGUAGCAAUAUUACGUGUU
30 °C
  self-splicing fitness (ln): -3.73 ± 0.13
37 °C
  self-splicing fitness (ln): -2.37 ± 0.13

## ACGUAGCAAUAUUACGUUGC
30 °C
  self-splicing fitness (ln): -3.35 ± 0.24
37 °C
  self-splicing fitness (ln): -1.68 ± 0.22

## ACUAAGCAAUAUUACGAAAU
30 °C
  self-splicing fitness (ln): -2.67 ± 0.16
37 °C
  self-splicing fitness (ln): -1.22 ± 0.17
